This is an account of results in patent US20240325562A1 (LINXIS B V, published 2024).

T1: recombinant rPDGFRB ectodomain (rat, UniProt Q05030 32-531)
T1 construct: extracellular domain; also called rPDGFRB-ECD; rat PDGFRB ECD
T1 sequence (looked up): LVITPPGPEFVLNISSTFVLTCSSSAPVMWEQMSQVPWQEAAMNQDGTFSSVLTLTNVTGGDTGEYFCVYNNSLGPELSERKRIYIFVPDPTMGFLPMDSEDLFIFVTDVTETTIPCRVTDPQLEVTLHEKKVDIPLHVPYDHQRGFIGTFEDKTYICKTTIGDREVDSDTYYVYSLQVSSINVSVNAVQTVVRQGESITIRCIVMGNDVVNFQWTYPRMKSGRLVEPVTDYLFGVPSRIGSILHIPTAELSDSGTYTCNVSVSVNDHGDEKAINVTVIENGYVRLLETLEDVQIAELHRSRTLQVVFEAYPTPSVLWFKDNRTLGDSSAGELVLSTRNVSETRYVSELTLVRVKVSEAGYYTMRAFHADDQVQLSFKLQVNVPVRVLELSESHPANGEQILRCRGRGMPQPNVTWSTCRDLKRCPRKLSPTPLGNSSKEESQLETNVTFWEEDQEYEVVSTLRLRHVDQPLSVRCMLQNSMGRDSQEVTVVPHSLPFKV

B1: SP01P (VHH)
VHH: EVQLVESGGGLAQAGGSLRLSCVASGNIDSANGMAWYRQAPGKQRELVAHITSGTSYYVASVEGRFTISRANAKDTWYLQMNSLKPEDTGVYYCFPIGLSAHWSQGTQVTVSS
notes: From libraries 1 and 2 (raised against hPDGFRB)
B2: SP13P (VHH)
VHH: EVQLVESGGGLVQPGGSLRLSCAASESIFSINYMAWYRQAPGKQRELVAFSIDGSSTNYVDSVRGRFTASRDNAENTLYLQMNSLKPEDTAVYYCYAQGNTWAAGVWGQGTQVTVSS
notes: as for B1
B3: SP05P (VHH)
VHH: EVQLVESGGGLVQAGGSLRLSCAASGRTSFSGYAMAWFRQAPGKERDFVASITWSYGYTYYTDSAQGRFTISRDSAKNTVYLEMNSLKPEDTAVYYCAADPKASRFRILREYAYWGQGTQVTVSS
notes: as for B1
B4: SP14P (VHH)
VHH: EVQLVESGGGLVQAGDSLRLSCVVSGLTFSRYGMGWFRQATGKEREFVGGISVGSSGTMYPNSVKGRFTISRDNAKSTVYLQMNSLKPEDTAVYFCAAIDQGSFVQQRDYRYWGQGTQVTVSS
notes: as for B1
B5: SP02P (VHH)
VHH: EVQLVESGGGLVQAGGSLRLSCAASESISSIEQMGWFRQAPGKQRALVAINTYGGRTVYTNSVEGRFTMSRDSAKNMVYLQMTSLEPEDTAVYYCYAQTTAWRGGVWGQGTQVTVSS
notes: as for B1
B6: SP12P (VHH)
VHH: EVQLVESGGGLVQAGGSLRLSCVISGRTSPTYPMGWFRQSPGNEREFVASINWSGGWRNYADSVKGRFTISRDDAKNTVYLQMNSLKPEDTAVYYCARGQYSSGTPVYAHEYAYWGQGTQVTVSS
notes: as for B1
B7: SP20P (VHH)
VHH: EVQLVESGGGLVQAGGSLRLSCVISGRTSPTYPMGWFRQSPGNEREFVASINWSGGWRNYADSVKDRFTISRDDAKNTVYLQMNSLKPEDTAVYYCARGQYSSGTPVYAHEYAYWGQGTQVTVSS
notes: as for B1
B8: SP10P (VHH)
VHH: EVQLVESGGGLVQAGGSLRLSCAASGRTFNGYAMGWFRQAPGKERDFVAAITWSYGYTHYAESVKGRFSISRDSANNMVYLEMNSLKPEDTAVYYCAADPKASRFRTLRRYDYWGQGTQVTVSS
notes: as for B1
B9: SP08P (VHH)
VHH: EVQLVESGGGLVQAGGSLRLSCAASGRTFNGYAMAWFRQAPGKERDFVASITWSYGYTYYADSAQGRFTISRDSAKNTVYLEMNSLKPEDTAVYYCAADPKASRFRILRQYAHWGQGTQVTVSS
notes: as for B1
B10: 13F11-13F11-A647 (VHH)
chain: EVQLVESGGRLVQPGDSLRLSCAASGRTFSDNAMGWFRQAPGKERRFVAGISWAGGSTYYSDSVKGRFTISRDNAKNTVYLQMNSLKPEDTAVYYCAAGLRAWVQRMPKDYNYWGQGTQVTVSSGGGGSGGGGSGGGGSEVQLVESGGRLVQPGDSLRLSCAASGRTFSDNAMGWFRQAPGKERRFVAGISWAGGSTYYSDSVKGRFTISRDNAKNTVYLQMNSLKPEDTAVYYCAAGLRAWVQRMPKDYNYWGQGTQVTVSS
modifications: Alexa Fluor 647 coupled by maleimide to the C-terminal free cysteine, which is not in the letters
notes: Bivalent tandem VHH; not shown: C-terminal tail: free Cys, possible thrombin site and His6 tag
B11: SP28P (VHH)
VHH: EVQLVESGGGLVQAGGSLRLSCAASGSIVSFNGINWYRQAPGKQREWVGGITQGGNTMYADSVRGRFTISRDNTKNTMYLQMNSLKPEDTAVYYCRRPPVASWGQGTQVTVSS
notes: From libraries 3 and 4 (raised against rPDGFRB)
B12: SP27P (VHH)
VHH: EVQLVESGGGLVQIGDSLRLSCAASGGTFNRYGMGWFRQAPGKEREFVAAIRWDGVDTNYADFVKGRFTISRYNAKNTAYLQMNSLKPEDTAVYYCAADRRGLYTKHAHRYDYWGQGTQVTVSS
notes: as for B11
B13: SP36P (VHH)
VHH: EVQLVESGGGLVQAGGSLRLSCTPSITTAGTTIMAWFRQAPGNEREFVAAIWGSKTAYGDSMKGRLTISRDNVRDNGQKTVFLQMNNLQLQDTATYYCAASSGGYVHSSTSYEIWGRGTQVTVSS
notes: as for B11
B14: SP30P (VHH)
VHH: EVQLVESGGGLVQAGGSLRLSCAASRGTFGTDIMGWFRQAPGKEREFVAAISWRGANTYYGYSVKGRFTISRDNAKNTMYLQMADLKPEDTADYYCGVHLNGTPYYYASGYRYWGQGTQVTVSS
notes: as for B11
B15: SP31P (VHH)
VHH: EVQLVESGGGLVQAGGSLRLSCAASRGTFGTYIMGWFRQAPGKEREFVAAISWRGANTYYGYSVKGRFTISRDNAKNTMYLQMADLKPEDTADYYCGVHLNGTPYYYASGYRYWGQGTQVTVSS
notes: as for B11
B16: 13D11 (VHH)
VHH: EVQLVESGGGLVQAGGSLRLSCAASGSIFSINYMAWYRQAPGKEREVVASMSWRRDSTYLADSVQGRFTISRNNAKNTMYLQMNSLKPEDTALYYCKANDYWGQGTQVTVSS
notes: On phage in the phage ELISA; tail applies to the purified protein
B17: 13F4 (VHH)
VHH: EVQLVESGGGLVQAGGSLRLSCVASGSIFSINYMAWYRQTPGKEREVVASMSRRSDSTYLADAVQGRFTISRNNAGNTMYLQMNSLKPEDTALYYCKANDYWGQGTQVTVSS
notes: as for B16
B18: 13A3 (VHH)
VHH: EVQLVESGGGLVQAGGSLRLSCAASGSIFRLNYMAWYRQAPGKEREVVASMSRRSDSTYLADAVQGRFTISMNNAGNTMYLQMNSLKPEDTALYYCKANDYWGQGTQVTVSS
notes: as for B16
B19: 13A8 (VHH)
VHH: EVQLVESGGGLVPAGGSLRLSCAASGRTFSNYAMGWFRQAPGKERKFVATISWSGGVTYYADSVKGRFTISRDNAKNTVYLLMNSLKPEDTAVYYCAAKRDSSSYDHRRYDYWGQGTQVTVSS
notes: On phage in the phage ELISA; purified from E. coli in the other assays
B20: 13E5 (VHH)
VHH: EVQLVESGGGLVQAGGSLRLSCAASGLTFSRYTMSWYRQAPGKEREVVAAISSGDSTYHEDSVKGRFIISRDNAKNTVYLQMNSLKTEDTAVYYCRANGPGTYWGQGTQVTVSS
notes: as for B16
B21: 13A2 (VHH)
VHH: EVQLVESGGGLVQAGGSLRLSCAASGIIFSANTVGWYRQVPGKERDVVASITSGDSTYYGDSVRDRFTISRDNAKNTVYLQMNSLKPDDTAIYYCRARTTDGSYWGQGTQVTVSS
notes: as for B16
B22: 13B12 (VHH)
VHH: EVQLVESGGGLVQAGGSLRLSCAASGIIFGANTVGWYRQVPGKERDVVASITSVDSTYYGDSVRGRFTISRDNAKNTVYLQMNSLKPEDTAIYYCRARTTDGSYWGQGTQVTVSS
notes: as for B16
B23: 13G12 (VHH)
VHH: EVQLVESGGGLVQAGGSLRLSCAASGRAFSISSMSWFRQAPGKERVVVASIAWSGDSTYYADSVQGRFTISKDNAKNTLSLQMNSLKPEDTAVYYCSAYTQVSVNNRYWGQGTQVTVSS
notes: the first entry is used; On phage in the phage ELISA
B24: 13B7 (VHH)
VHH: EVQLVESGGGLVQAGGSLRLSCAASRSISPMGWYRQAPGKQRELVAIMPSSGTPIYADSVQGRFTISRDNAKNTVYLQMNSLKPEDTAVYYCNVGGGYWGQGTQVTVSS
notes: as for B16

For the first test, the target named is T2, recombinant hPDGFRB ectodomain (human, UniProt P09619 33-532).
T2 construct: extracellular domain; also called hPDGFRB-ECD; human PDGFRB ECD
T2 sequence (P09619 33-532): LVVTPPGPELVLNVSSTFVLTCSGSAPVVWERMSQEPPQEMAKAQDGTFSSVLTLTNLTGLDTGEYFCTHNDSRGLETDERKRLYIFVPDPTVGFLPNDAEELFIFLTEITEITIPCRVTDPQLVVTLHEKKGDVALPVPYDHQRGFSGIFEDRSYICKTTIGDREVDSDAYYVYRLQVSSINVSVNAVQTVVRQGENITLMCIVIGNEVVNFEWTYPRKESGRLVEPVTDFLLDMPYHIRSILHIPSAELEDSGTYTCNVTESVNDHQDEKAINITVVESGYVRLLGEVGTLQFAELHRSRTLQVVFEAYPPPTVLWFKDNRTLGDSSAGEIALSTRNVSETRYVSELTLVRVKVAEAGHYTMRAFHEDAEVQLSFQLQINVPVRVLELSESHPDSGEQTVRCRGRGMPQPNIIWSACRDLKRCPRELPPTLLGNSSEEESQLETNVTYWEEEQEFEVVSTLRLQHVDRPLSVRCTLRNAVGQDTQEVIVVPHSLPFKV
Briefly: phage ELISA and binding assay on hPDGFRB-ECD; values only in FIG. 5.
Turning to B1, the binding result is listed as “binds”.
Consider B2, for which the binding result is on record as “binds”.
As for B3, the binding result was “binds”.
The same measure, in the same setting: the entry for B4 is “binds”; for B5 it is “binds”; for B6 it is “binds”.
For the molecule B7, the binding result is given as “binds”.
Still for that read-out and setting: the entry for B8 is “binds”; for B9 it is “binds”.

In a further test the target is T3, recombinant human extracellular domain of IGF2R (human, UniProt P11717 41-2304).
T3 construct: extracellular domain; Recombinant, immobilized on plates; also called hIGF2R-ECD; human IGF2R ectodomain (ECD)
Briefly: direct binding assay of the Alexa Fluor 647 conjugate on hIGF2R-ECD, one-site specific binding fit. How it is done:
These conjugates were then subjected to direct binding assays on immobilized hIGF2R-ECD, meaning that plates were read out immediately after washing, without additional detection steps. […] For detailed analysis, binding parameters KD and Bₘₐₓ were calculated in Graphpad (version 8.3), using one-site specific binding analysis (FIG. 8D).
Based on their high affinity and binding to non-overlapping receptor epitopes, VHHs 13F11 and 13E8 were selected for the design of biparatopic and bivalent VHH constructs. Two VHHs were fused with a flexible linker, consisting of three Gly-Gly-Gly-Gly-Ser repeats (FIG. 8A). The sequences were codon optimized for expression in E. coli and obtained as synthesized DNA fragments from GeneArt. The DNA fragments encoding VHHs were cloned into a vector pET28-based vector introducing a C-terminal free cysteine for site-directed conjugation and His6 tag for IMAC purification (FIG. 8A). The VHH constructs were produced and purified as described in example 4. […] In a similar binding assay, IR dye 800 (IRD800) conjugates were prepared (as outlined in example 10.2) of the monomeric VHHs 13F11 and 13E8, the biparatopic VHH construct 13F11-13E8, the reciprocal biparatopic construct 13E8-13F11, the bivalent VHH construct 13F11-13F11, and the non-binding (control-) VHH R2. Conjugated constructs were then subjected to binding assay as described above.
As for B10, the Kd was determined as 3.1 nM.

The next test has as its target T1, recombinant rPDGFRB ectodomain. Briefly: phage ELISA and binding assay on rPDGFRB-ECD; values only in FIG. 6.
Regarding B11, the binding result is “binds”.
Consider B12, for which the binding result is listed as “binds”.
For the molecule B13, the binding result was “binds”.
Still for that read-out and setting: then B14, with “binds”.
As to B15, the binding result is reported as “binds”.

Another test concerns the target T3, recombinant human extracellular domain …. Briefly: phage ELISA on hIGF2R-ECD. How it is done: After the second selection round, 94 phage clones were randomly picked and assessed for binding to hIGF2R-ECD in a phage ELISA. Clones showing affinity were analyzed by restriction enzyme analysis using Hinfl and then categorized according to their restriction pattern. From each category, multiple clones were selected, and the amino acid sequences of these binders were identified (Table 2).
On to B16, for which the binding result is reported as “binds”.
With B17, the binding result is given as “binds”.
Turning to B18, the binding result is given as “binds”.
With B19, the binding result was “binds”.
With B20, the binding result is on record as “binds”.
For B21, the binding result was “binds”.
Take B22: the binding result is on record as “binds”.
For the molecule B23, the binding result is given as “binds”.
As to B24, the binding result was “binds”.
